Laboratory results taken from patent EP0951295B1 (THE SCRIPPS RESEARCH INSTITUTE, dated 2010).
Values belong to the molecule of their own block, whether it stands above or below them.

Assays:
[1] = target: integrin αvβ3 (vitronectin receptor), purified and immobilized on microtiter wells (UniProt P06756); assay: solid-phase receptor binding assay, 125I-MMP-2 on immobilized αvβ3
[2] = target: integrin αIIbβ3, purified and immobilized on microtiter wells (UniProt P08514); assay: solid-phase receptor binding assay, 125I-MMP-2 on immobilized αIIbβ3
[3] = target: integrin αvβ3 (vitronectin receptor), purified and immobilized on microtiter wells (UniProt P06756); assay: solid-phase competition: peptide against 1 nM 125I-fibrinogen on immobilized αvβ3; mean of duplicates ± SD
[4] = target: integrin αIIbβ3, purified and immobilized on microtiter wells (UniProt P08514); assay: solid-phase competition: peptide against 1 nM 125I-fibrinogen on immobilized αIIbβ3; mean of duplicates ± SD
[5] = target: T1, integrin αvβ3 (vitronectin receptor), purified and immobilized on microtiter wells (UniProt P06756 31-1048; P05106 27-788); assay: solid-phase competition: peptide against fibrinogen (FG) on immobilized αvβ3; individual assay
T1 construct: Purified integrin coated at 50 ng per well; also called αvβ3 receptor; vitronectin receptor (αvβ3)

[6] = target: T1, integrin αvβ3 (vitronectin receptor), …; assay: solid-phase competition: peptide against vitronectin (VN) on immobilized αvβ3; individual assay
[7] = target: T2, integrin αIIbβ3, purified and immobilized on microtiter wells (UniProt P08514 32-1039; P05106 27-788); assay: solid-phase competition: peptide against vitronectin (VN) on immobilized αIIbβ3; individual assay
T2 construct: Purified integrin coated at 50 ng per well; also called α11bβ3

[8] = target: T2, integrin αIIbβ3, purified and …; assay: solid-phase competition: peptide against fibrinogen (FG) on immobilized αIIbβ3; individual assay

bound cpm [1]: 300 cpm | bound cpm [2]: 10 CPM
Molecule: MMP-2 (matrix metalloproteinase-2) as used in the solid-phase receptor binding assays (enzyme)

IC50 [3]: 1050 nM | IC50 [4]: 630 nM
Molecule: peptide 62175, cyclo(ARGDfL)

IC50 [3]: 395 nM | IC50 [4]: 55 nM
Molecule: peptide 62179, cyclo(GRGDfL)

IC50 [3]: 1960 nM | IC50 [4]: 15000 nM
Molecule: peptide 62181, cyclo(GrGDFV)

IC50 [3]: 50 nM | IC50 [4]: 525 nM
Molecule: peptide 62184, cyclo(RGDfV)

IC50 [3]: 885 nM | IC50 [4]: 100000 nM
Molecule: peptide 62185, cyclo(RADfV)

IC50 [3]: 57400 nM | IC50 [4]: 100000 nM
Molecule: peptide 62186, cyclo(RaDFV)

IC50 [3]: 50 nM | IC50 [4]: 260 nM
Molecule: peptide 62187, cyclo(RGDFv)

IC50 [5]: > 100000 nM | IC50 [6]: > 100000 nM | IC50 [7]: > 100000 nM
B1: peptide 62411, TRQVVCDLGNPM (linear, αv-derived amino acid residues 676-687) (peptide)
peptide: TRQVVCDLGNPM
notes: Linear synthetic peptide

IC50 [5]: < 100 nM | IC50 [6]: 500 nM | IC50 [8]: 4200 nM | IC50 [7]: 980 nM
B2: peptide 62880, YTAECKPQVTRGDVF (linear, VN-derived amino acid residues 35-49) (peptide)
peptide: YTAECKPQVTRGDVF
notes: Linear synthetic peptide

IC50 [5]: > 100000 nM | IC50 [6]: > 100000 nM | IC50 [7]: > 100000 nM
B3: peptide 62503, GVVRNNEALARLS (linear, αv-derived amino acid residues 655-667) (peptide)
peptide: GVVRNNEALARLS
notes: Linear synthetic peptide

IC50 [5]: > 100000 nM | IC50 [6]: > 100000 nM | IC50 [8]: 90000 nM | IC50 [7]: 5000 nM
B4: peptide 62502, TDVNGDGRHDL (linear, αIIb-derived amino acid residues 296-306) (peptide)
peptide: TDVNGDGRHDL
notes: Linear synthetic peptide
